We go through 48 molecules from patent US20040258656, “High affinity TGFbeta nucleic acid ligands and inhibitors” (published 2004).

Series [1] has as its target T1, TGFβ2 (transforming growth factor beta 2) (Homo sapiens, UniProt P61812 SEQ:1-112).
T1 sequence: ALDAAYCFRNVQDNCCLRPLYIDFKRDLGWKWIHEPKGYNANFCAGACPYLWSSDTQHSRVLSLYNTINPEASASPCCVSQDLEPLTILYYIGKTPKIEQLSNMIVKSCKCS
Briefly: filter. Conditions: chain copies: 2 (inferred, homodimer).

Series [2] addresses T1, TGFβ2 (transforming growth factor beta …). Briefly: filter. The following applies: chain copies: 2 (homodimer, stated).
Series [3] shares this target. The series is described as follows: filter. Conditions: chain copies: 2 (inferred, homodimer). The source holds these as a separate data set.
For series [4] the target is unchanged. The series is described as follows: filter. The following applies: chain copies: 2 (inferred, homodimer). The source holds these as a separate data set.
Series [5] shares this target. Briefly: filter. The following applies: chain copies: 2 (inferred, homodimer). This is another data set of the same source.
Series [6] deals with T2, TGFβ1 (transforming growth factor beta 1) (Homo sapiens, UniProt P01137 SEQ:1-112). The series is described as follows: bioactivity +++. Conditions: chain copies: 2 (inferred, homodimer).
T2 sequence (P01137 279-390): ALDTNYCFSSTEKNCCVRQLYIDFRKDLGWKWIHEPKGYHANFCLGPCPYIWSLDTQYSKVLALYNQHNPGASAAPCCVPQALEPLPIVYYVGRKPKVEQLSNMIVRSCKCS
Series [7] concerns the target T2, TGFβ1 (transforming growth factor beta …). Briefly: CD70 parent +++. Conditions: chain copies: 2 (homodimer, inferred).

B1: 14i-1(ML-89) (ssRNA)
RNA: GGGAGGAGUAACGUUGUAGU
modifications: 2'-F C and U
Take B1: the binding signal in series [1] is > 100 x Kd of 14i-1.

B2: 14i-1(ML-87) (ssRNA)
RNA: GGGAGGAUGCGGAAGUAACGUUGUAGU
modifications: 2'-F C and U
Regarding B2, in series [1], the binding signal was > 100 x Kd of 14i-1.

B3: 8.8 (ssRNA)
RNA: GGGAGGACGAUGCGGAUAGAUCGGUCCGAUAAGUCUUUCAUCUUUACCUGGCCCCCAGACGACUCGCCCGA
modifications: 2'-F C and U; 2'-OH A and G
On to B3, for which the binding result in series [2] was “no binding”.

B4: 8.18 (ssRNA)
RNA: GGGAGGACGAUGCGGUCUACCCUUUAGCAGUAUUUGUUUCCAUCGUUGUUUGCCCCAGACGACUCGCCCGG
modifications: 2'-F C and U; 2'-OH A and G
Take B4: in series [2], the binding result is “no binding”.

B5: 21a-4Δ5',3' (ssRNA)
RNA: GGCGUUGUUUAGUCGUAUGUAUAUACUAAGUCCGCUUGUCCCCA
modifications: 2'-F C and U
Consider B5, for which the binding signal in series [3] is > 100 x Kd of 21a-4.

B6: 8.20 (ssRNA)
RNA: GGGAGGACGAUGCGGUCUCAACGAAGAACAUCGUUGGAUACUGUUUGUCCCGCCCCAGACGACUCGCCCGA
modifications: 2'-F C and U; 2'-OH A and G
Take B6: in series [2], the binding result is on record as “no binding”.

B7: NX22385 (ssRNA)
RNA: UGUGAAUAUUAGAGAGUCUGUAUAGCUCUACCCC
modifications: 2'-F C and U; 3'-3' dT
In the case of B7, the binding signal in series [4] is 0.4 x Kd of NX22284.

B8: NX22425 (ssRNA)
RNA: B7 RNA
modifications: 2'-F C and U; 2'-OMe at lowercase a,g of UgUgaaUAUUagagagUCUGUAUAgCUCUaCCCC; 3'-3' dT
As for B8, in series [4], the binding signal was 1.5 x Kd of NX22284.

B9: NX22424 (ssRNA)
RNA: B7 RNA
modifications: 2'-F C and U; 2'-OMe at lowercase a,g of UgUgAAUAUUaGagagUCUGUAUAgCUCUaCCCC; 3'-3' dT
With B9, in series [4], the binding signal is 0.6 x Kd of NX22284.

B10: 14i-1Δ5',3' (ssRNA)
RNA: GGAAGUAACGUUGUAGUAAAAUUCGUUCUCUCGGCAUUUGGCCA
modifications: 2'-F C and U
Turning to B10, in series [1], the binding signal was > 100 x Kd of 14i-1.

B11: 21a-4(ML-109) (ssRNA)
RNA: GGGGAGCGGCGUUGUUUAUGUAUAAGUCCGCUU
modifications: 2'-F C and U
With B11, the binding signal in series [3] was > 100 x Kd of 21a-4.

B12: 14i-1t5-41 (ssRNA)
RNA: GGGAGGAUGCGGAAGUAACGUUGUAGUAAAAUUCCUUC
modifications: 2'-F C and U
For B12, the binding signal in series [1] was 1 x Kd of 14i-1.

B13: 8.9 (ssRNA)
RNA: GGGAGGACGAUGCGGAAGUAACGUUGAAGUAAAAUUCGUUCUCUCGGUAUUUGGCCAGACGACUCGCCCGA
modifications: 2'-F C and U; 2'-OH A and G
B13: in series [2], the binding result is given as “binds”.

B14: 14i-1t5-38 (ssRNA)
RNA: GGGAGGAUGCGGAAGUAACGUUGUAGUAAAAUUCC
modifications: 2'-F C and U
For the molecule B14, in series [1], the binding signal was > 100 x Kd of 14i-1.

B15: 21a-4(ML-108) (ssRNA)
RNA: GGGGAGCGGCGUUGUUUCGUAUGUAUAUAAGUCCGCUU
modifications: 2'-F C and U
On to B15, for which, in series [3], the binding signal was > 100 x Kd of 21a-4.

B16: 14i-1(ML-86) (ssRNA)
RNA: GGGAGGAUGCGGAAGUAACGUUGUAGUUCCUUC
modifications: 2'-F C and U
Regarding B16, in series [1], the binding signal was > 100 x Kd of 14i-1.

B17: 8.12 (ssRNA)
RNA: GGGAGGACGAUGCGGUCCAUCAACAAUCUUAUCAUUAUGUUUUUCCUUCCCGCCCCAGACGACUCGCCCGA
modifications: 2'-F C and U; 2'-OH A and G
Consider B17, for which the binding result in series [2] is “no binding”.

B18: NX22356 (ssRNA)
RNA: GGAGGUUAUUACAGAGUCUGUAUAGCUGUACUCC
modifications: 2'-F C and U; 2'-OMe at lowercase a,g of ggagGUUAUUACAGAGUCUGUAUAGCuGUACUCC; 3'-3' dT
Consider B18, for which, in series [5], the binding signal is 1 x Kd of NX22284.

B19: NX22420 (ssRNA)
RNA: B18 RNA
modifications: 2'-F C and U; 2'-OMe at all purines except A8, G20, A22, A24; 3'-3' dT
As to B19, the binding signal in series [5] was 1 x Kd of NX22284.

B20: NX22377 (ssRNA)
RNA: B18 RNA
modifications: 2'-F C and U; 2'-OMe at lowercase a,g of ggaggUUaUUaCAGAGUCUGUAUAgCUgUaCucc; 3'-3' dT
On to B20, for which, in series [5], the binding signal was 1 x Kd of NX22284.

B21: NX22358 (ssRNA)
RNA: B18 RNA
modifications: 2'-F C and U; 2'-OMe at lowercase a,g of GGAGGUUAUUACagagUCUGUAUAGCUGUACUCC; 3'-3' dT
B21: the binding signal in series [5] is 1 x Kd of NX22284.

B22: NX22357 (ssRNA)
RNA: B18 RNA
modifications: 2'-F C and U; 2'-OMe at lowercase a,g of GGAGgUUaUUaCAGAGUCUGUAUAGCUGUACUCC; 3'-3' dT
For B22, the binding signal in series [5] was 2 x Kd of NX22284.

B23: NX22421 (ssRNA)
RNA: B18 RNA
modifications: 2'-F C and U; 2'-OMe at all purines except G5, A8, A11, G20, A22, A24; 3'-3' dT
With B23, the binding signal in series [5] is 2 x Kd of NX22284.

B24: NX22417 (ssRNA)
RNA: B18 RNA
modifications: 2'-F C and U; 2'-OMe at all purines except G20, A22, A24; 3'-3' dT
Regarding B24, in series [5], the binding signal was 1 x Kd of NX22284.

B25: NX22360 (ssRNA)
RNA: B18 RNA
modifications: 2'-F C and U; 2'-OMe at lowercase a,g of GGAGGUUAUUACAGAGUCUGUAUAgCUgUaCUCC; 3'-3' dT
B25: the binding signal in series [5] was 1 x Kd of NX22284.

B26: 8.40 (ssRNA)
RNA: GGGAGGACGAUGCGGCCCAUUAGUCCUCAUUAGUCCCCUGUGCCCCAGACGACUCGCCCGA
modifications: 2'-F C and U; 2'-OH A and G
For B26, the binding result in series [2] was “no binding”.

B27: 8.6 (ssRNA)
RNA: GGGAGGACGAUGCGGAAACCAAAAGACCACAUCUCCAUACUCACGCUCUGCCCCAGACGACUCGCCCGA
modifications: 2'-F C and U; 2'-OH A and G
Take B27: in series [2], the binding result is given as “no binding”.

B28: 21a-4(ML-91) (ssRNA)
RNA: GGGGAGCGGCGUUGUUUAGUCGUAUGUAUAUACUAAGUCCGCUU
modifications: 2'-F C and U
For the molecule B28, in series [3], the binding signal was 1 x Kd of 21a-4.

B29: CD70 (ChD70) (ssRNA)
RNA: GGGUGCCUUUUGCCUAGGUUGUGAUUUGUAACCUUCUGCCCA
modifications: 2'-F pyrimidines (library chemistry)
As for B29, the binding result in series [6] is recorded as “binds”.

B30: ChD70-m11 (ssRNA)
RNA: B29 RNA
modifications: 2'-OMe at 17, 21, 23-24, 28
Consider B30, for which, in series [7], the binding result is given as “binds”.

B31: ChD70-m12 (ssRNA)
RNA: B29 RNA
modifications: 2'-OMe at 18, 21, 23-24, 28
For the molecule B31, the binding result in series [7] is reported as “binds”.

B32: ChD70-m5 (ssRNA)
RNA: B29 RNA
modifications: 2'-OMe at 1, 21, 23-24, 28
B32: in series [7], the binding result was “binds”.

B33: ChD70-m18 (ssRNA)
RNA: B29 RNA
modifications: 2'-OMe at 1-3, 16-18, 21, 23-24, 28, 30, 42; 3'-3' U cap
In the case of B33, the binding result in series [7] was “binds”.

B34: ChD70-m15 (ssRNA)
RNA: B29 RNA
modifications: 2'-OMe at 21, 23-24, 28, 38
As to B34, the binding result in series [7] is given as “binds”.

B35: ChD70-m16 (ssRNA)
RNA: B29 RNA
modifications: 2'-OMe at 21, 23-24, 28, 42
Consider B35, for which the binding result in series [7] is given as “binds”.

B36: ChD70-m10 (ssRNA)
RNA: B29 RNA
modifications: 2'-OMe at 16, 21, 23-24, 28
With B36, in series [7], the binding result is “binds”.

B37: ChD70-m3 (ssRNA)
RNA: B29 RNA
modifications: 2'-OMe at 21, 23-24, 28
B37: the binding result in series [7] was “binds”.

B38: ChD70-m14 (ssRNA)
RNA: B29 RNA
modifications: 2'-OMe at 21, 23-24, 28, 31
B38: in series [7], the binding result is recorded as “binds”.

B39: ChD70-m7 (ssRNA)
RNA: B29 RNA
modifications: 2'-OMe at 3, 21, 23-24, 28
As to B39, the binding result in series [7] is “binds”.

B40: ChD70-m6 (ssRNA)
RNA: B29 RNA
modifications: 2'-OMe at 2, 21, 23-24, 28
Consider B40, for which the binding result in series [7] is “binds”.

B41: 14i-1t5-35 (ssRNA)
RNA: GGGAGGAUGCGGAAGUAACGUUGUAGUAAAAU
modifications: 2'-F C and U
Regarding B41, the binding signal in series [1] was > 100 x Kd of 14i-1.

B42: 21a-4(ML-111) (ssRNA)
RNA: GGGGAGCGGCGUUGUUUAGUCGUAUGUAUAUACUAAGU
modifications: 2'-F C and U
Consider B42, for which, in series [3], the binding signal is 30 x Kd of 21a-4.

B43: NX22426 (ssRNA)
RNA: GGAGAUAUUACAGAGUCUGUAUAGCUGUACUCC
modifications: 2'-F C and U; 2'-OMe at lowercase a,g of ggaga-UAUUaCagagUCUgUAUAgCUgUaCucc with G of CUGUAUA 2'-OH; 3'-3' dT
B43: the binding signal in series [5] was 1 x Kd of NX22284.

B44: NX22427 (ssRNA)
RNA: GGGGUUAUUACAGAGUCUGUAUAGCUGUACCC
modifications: 2'-F C and U; 2'-OMe at lowercase a,g of gg-ggUUAUUaCagagUCUGUAUAgCUgUaC-CC; 3'-3' dT
B44: the binding signal in series [5] is 0.3 x Kd of NX22284.

B45: 21a-4(ML-110) (ssRNA)
RNA: GGGGAGCGGCGUUGUUUAGUCGUAUGUAUAUACUAAGUCCGC
modifications: 2'-F C and U
For the molecule B45, the binding signal in series [3] was 1 x Kd of 21a-4.

B46: 8.5 (ssRNA)
RNA: GGGAGGACGAUGCGGUCCUAACCAUCACAAUCUCAAUUCUUAUAUUUUCCCGCCCCAGACGACUCGCCCGA
modifications: 2'-F C and U; 2'-OH A and G
In the case of B46, the binding result in series [2] is “no binding”.

B47: 8.48 (ssRNA)
RNA: GGGAGGACGAUGCGGAAGUAACGUUGAAGUAAAAUUCGUUCUCUCGGUAUUGGCCAGACGACUCGCCCGA
modifications: 2'-F C and U; 2'-OH A and G
Regarding B47, the binding result in series [2] is recorded as “binds”.

B48: 21a-4(ML-92) (ssRNA)
RNA: GGGGAGCGGCGUUGUUGAAAAGUCCGCUU
modifications: 2'-F C and U
B48: in series [3], the binding signal is > 100 x Kd of 21a-4.
